1 molecule from patent US20210032351A1 (XDCEXPLORER SHANGHAI, published 2021) can be followed below.

As usually defined, the EC50 is the concentration giving half of the maximal effect. Low readings indicate an effect from little substance, high ones a need for much substance.

For experiment [1], the target named is T1, human EGFRvIII-hFc protein (human, UniProt P00533 25-645).
T1 construct: extracellular domain; also called immunogen A; hFc-tagged EGFRvIII protein; not shown: human IgG Fc fragment (hFc) of the pCpC vector
Briefly: ELISA, EGFRvIII-hFc coated. In general terms: In an ELISA, binding on a coated surface is turned into a signal by an enzyme label.

Experiment [2] addresses T2, human EGFRvIII protein on the cell surface (human, UniProt P00533 25-1210).
T2 construct: whole, on cells; the cell line is named under assay; also called hEGFRvIII; U87MG-hEGFRvIII
Briefly: FACS on CHOk1-EGFRvIII cells. The method, then: (§1) The desired cells are subjected to an expanded culture to 90% confluence in a T-75 cell culture flask; the medium is sucked out, and the cells are washed twice with a HBSS buffer (Hanks Balanced Salt Solution) (purchased from Invitrogen), and then treated with an enzyme-free cell dissociation solution (Versene solution: purchased from Life Technology) and collected. The cells are washed twice with the HBSS buffer and are counted, and then the cells are diluted with the HBSS buffer to 2×10⁶ cells/ml, added with 1% goat serum blocking solution, with the percentage being the mass percentage, and incubated on ice for 30 minutes, and then centrifugally washed twice with the HBSS buffer. The collected cells are suspended to 2×10⁶ cells/mL with an FACS buffer (HBSS+1% BSA, with the percentage being the mass percentage), added to a 96-well FACS reaction plate at 100 μL/well, then added with 100 μL/well of the purified EGFRvIII antibody (samples to be tested) obtained in example 2, and incubated on ice for 2 hours. The plate is centrifugally washed twice with the FACS buffer, added with 100 μL/well of a fluorescence (Alexa 488) labeled secondary antibody (purchased from Invitrogen), and then incubated on ice for 1 hour. The plate is centrifugally washed 3 times with the FACS buffer, added with 100 μL/well of a fixing solution [4% (v/v) paraformaldehyde] for suspending the cells, and centrifugally washed twice with the FACS buffer after 10 minutes. The cells are suspended in 100 μL of the FACS buffer, and the results are detected and analyzed by FACS (FACS Calibur, purchased from BD). Data analysis is performed by using the software (CellQuest) to obtain the mean fluorescence intensity (MFI) of the cells. Data is further analyzed by using the software (GraphPad Prism5) to perform data fitting and calculate EC50. […] A431 cells (human epidermal cell cancer cell lines) have a large amount of wild-type EGFR protein expressed on the surface thereof.

Experiment [3] has as its target T3, human wild-type EGFR protein on the cell surface (human, UniProt P00533 25-1210).
T3 construct: whole, on cells; Endogenous on A431, HEB, U87MG cells and normal human primary hepatocytes; transfected on CHOk1-EGFR cells; The cell is named under assay; also called A431; HEB
Briefly: FACS on A431 cells; A431 cells (large amount of wild-type EGFR on the surface). The method, then: as §1, with “The” for “The desired cells are subjected to an expanded culture to 90% confluence in a T-75 cell culture flask; the medium is sucked out, and the cells are washed twice with a HBSS buffer (Hanks Balanced Salt Solution) (purchased from Invitrogen), and then treated with an enzyme-free cell dissociation solution (Versene solution: purchased from Life Technology) and collected. The”, “thereof. […] U87MG cells (human glioma cell lines) have a small amount of wild-type EGFR protein expressed on the surface thereof, while HEB cells (human glioma cell lines) have a high level of wild-type EGFR protein expression on the surface thereof.” for “thereof.”

B1: Chimeric antibody 75G7 (antibody, human IgG1, V domains shown)
VH: EVQLQQSGPELVKPGASVKIPCKASGYTFTDYNMDWVKQSHGKSLEWIGDINPNNGDTIYNQKFKGKATLTVDKSSSTAYMELRSLTSEDTAVYYCARGDYDGYYPVYYAMDYWGQGTSVTVSS
VL: ENVLTQSPAIMSASPGEKVTMTCRASSSVSSSYLHWYQQKSGASPKLWIFSTSNLAAGVPARFSGSGSGTSYSLTVSSVEAEDAATYYCQQYSGYPLTFGAGTKLELK
notes: also called c75G7C6; chimeric antibody c75G7C6
Regarding B1, in experiment [1], the EC50 was found to be 0.5 nM and the “Maximum OD450 value” was 2.5 OD450. In addition, in experiment [2], the response was half-maximal at 10.5 nM (EC50) and the “Maximum mean fluorescence intensity” value was 112000 MFI. Besides, the EC50 in experiment [3] was 13.4 nM.
